T1: ULBP6 (NKG2D natural ligand) (Homo sapiens (Human), UniProt Q5VY80 26-218)
T1 sequence: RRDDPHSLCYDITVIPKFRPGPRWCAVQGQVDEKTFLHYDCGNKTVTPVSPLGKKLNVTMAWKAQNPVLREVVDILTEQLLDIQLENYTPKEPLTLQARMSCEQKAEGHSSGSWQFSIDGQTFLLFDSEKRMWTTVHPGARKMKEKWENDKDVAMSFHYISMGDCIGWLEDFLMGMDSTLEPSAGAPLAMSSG

T2: human NKG2D expressed on EL4 cells (human, UniProt P26718 1-216)
T2 construct: whole, on cells; also called NKG2D on EL4 cells; extracellular NKG2D expressed on EL4 cells
T2 sequence (looked up): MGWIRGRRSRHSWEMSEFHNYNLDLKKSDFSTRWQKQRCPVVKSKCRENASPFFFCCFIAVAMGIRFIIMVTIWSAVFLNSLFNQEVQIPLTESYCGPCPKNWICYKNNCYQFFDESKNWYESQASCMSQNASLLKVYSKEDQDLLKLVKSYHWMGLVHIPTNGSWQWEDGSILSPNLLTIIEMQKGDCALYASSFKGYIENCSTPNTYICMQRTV

B1: soluble mouse Fc-human NKG2D dimer (Fc fusion, UniProt P26718 78-216, looked up)
chain: FLNSLFNQEVQIPLTESYCGPCPKNWICYKNNCYQFFDESKNWYESQASCMSQNASLLKVYSKEDQDLLKLVKSYHWMGLVHIPTNGSWQWEDGSILSPNLLTIIEMQKGDCALYASSFKGYIENCSTPNTYICMQRTV
notes: also called mFc-hNKG2D; fusion protein of human NKG2D and murine Fc; not shown: mouse (murine) Fc

How the values were obtained:
[1] = molecular target: T1, ULBP6 (NKG2D natural ligand); experiment: SPR (Biacore 8K, 25 C), captured mouse Fc-human NKG2D, consecutive injections; ULBP6 injected after A44 (ADI-27744 antibody) was bound
Description: (§1) Briefly, mouse Fc-human NKG2D was captured using an anti-mouse Fc antibody immobilized on a CM5 chip at a density of approximately 100 RU. […] Biacore 8K evaluation software was used for all data analysis.

[2] = molecular target: T2, human NKG2D expressed on EL4 cells; experiment: flow cytometry on EL4 cells expressing NKG2D, anti-human IgG secondary, fold over background against parental EL4 cells
Procedure: EL4 mouse lymphoma cell lines were engineered to express human NKG2D. […] The binding of the multispecific binding proteins to NKG2D was detected using fluorophore-conjugated anti-human IgG secondary antibodies. Cells were analyzed by flow cytometry, and fold-over-background (FOB) was calculated using the mean fluorescence intensity (MFI) of NKG2D expressing cells compared to parental EL4 cells.

[3] = molecular target: T3, CD33 expressed on human AML cell line MV4-11 (human, UniProt P20138 18-364); experiment: flow cytometry on Mv4-11 cells, anti-human IgG secondary, fold over background against secondary antibody control
T3 construct: whole, on cells; also called CD33 expressed on Mv4-11 cells
Procedure: Human AML cell line MV4-11, expressing CD33 was used to assay the binding of TriNKETs to the tumor-associated antigen. TriNKETs and the parental CD33 monoclonal antibody were incubated with the cells, and the binding was detected using fluorophore-conjugated anti-human IgG secondary antibodies. Cells were analyzed by flow cytometry, and fold-over-background (FOB) was calculated using the mean fluorescence intensity (MFI) from TriNKETs and the parental monoclonal CD33 antibody normalized to secondary antibody controls.

[4] = molecular target: B1; experiment: SPR (Biacore 8K), antibody captured on anti-human Fc, soluble mouse Fc-human NKG2D dimer as analyte, 37 C, 1:1 fit
Procedure: (§2) Kinetics and affinity of various NKG2D-binding domains were assessed by surface plasmon resonance using Biacore 8K instrument (GE Healthcare). Anti-human Fc antibody was immobilized on a CM5 chip using standard amine coupling chemistry. Human monoclonal antibodies containing various NKG2D-binding domains were captured on the anti-human Fc chip at a density of approximately 100 RU. Solutions containing 0.411-100 nM soluble mouse Fc-human NKG2D dimers were injected over the captured NKG2D antibodies and control surfaces at 30 μl/min at 37° C. Surfaces were regenerated between cycles by quick injection of 10 mM glycine, pH 1.8. To obtain kinetic rate constants, double-referenced data were fit to a 1:1 interaction model using Biacore 8K Evaluation software (GE Healthcare). The equilibrium binding constant KD was determined by the ratio of dissociation constant kd and association constant kₐ (kd/kₐ).

[5] = molecular target: B1; experiment: SPR (Biacore 8K), antibody captured on anti-human Fc, soluble mouse Fc-human NKG2D dimer as analyte, 37 C, kd/ka
Procedure: as §2

[6] = molecular target: B1; experiment: SPR (Biacore 8K); lower end of the group's range, tied to ADI-27744 by Table 9
Procedure: as §2

[7] = molecular target: B1; experiment: SPR (Biacore 8K, 25 C), captured mouse Fc-human NKG2D, consecutive injections; F47 injected after A44 was bound
Description: as §1

T3 sequence (P20138 18-364): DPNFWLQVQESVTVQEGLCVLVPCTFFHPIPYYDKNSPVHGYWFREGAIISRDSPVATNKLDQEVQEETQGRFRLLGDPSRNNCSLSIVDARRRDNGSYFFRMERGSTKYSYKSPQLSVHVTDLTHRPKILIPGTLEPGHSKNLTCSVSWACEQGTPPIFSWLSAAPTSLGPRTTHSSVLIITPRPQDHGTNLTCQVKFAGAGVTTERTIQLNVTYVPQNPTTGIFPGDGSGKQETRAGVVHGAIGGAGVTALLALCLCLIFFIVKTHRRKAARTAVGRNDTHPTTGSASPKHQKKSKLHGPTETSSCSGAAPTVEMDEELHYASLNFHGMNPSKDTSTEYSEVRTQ

binding result [3]	koff [4] [s⁻¹]	kon [4] [M⁻¹ s⁻¹]	Kd [5] [nM]	Binder	also measured
–	–	–	–	B1	binding result [1]: binds
binds	–	–	–	CD33-TriNKET-A44 (ADI-27744 and a CD33 binding domain) (bispecific antibody, V domains shown) VH 1: not shown VL 1: DIQMTQSPSSVSASVGDRVTITCRASQGIDSWLAWYQQKPGKAPKLLIYAASSLQSGVPSRFSGSGSGTDFTLTISSLQPEDFATYYCQQGVSYPRTFGGGTKVEIK VH 2: QVQLVQSGAEVKKPGASVKVSCKASGYTFTDYVVHWVRQAPGQGLEWMGYINPYNDGTKYNEKFKGRVTMTRDTSISTAYMELSRLRSDDTAVYYCARDYRYEVYGMDYWGQGTLVTVSS VL 2: DIVLTQSPASLAVSPGQRATITCTASSSVNYIHWYQQKPGQPPKLLIYDTSKVASGVPARFSGSGSGTDFTLTINPVEANDTANYYCQQWRSYPLTFGQGTKLEIK	binding result [2]: binds
–	0.00299	295000	10.1	NKG2D monoclonal antibody comprising ADI-27744 (antibody, V domains shown, also called A44) VH: not shown VL: DIQMTQSPSSVSASVGDRVTITCRASQGIDSWLAWYQQKPGKAPKLLIYAASSLQSGVPSRFSGSGSGTDFTLTISSLQPEDFATYYCQQGVSYPRTFGGGTKVEIK	Kd [6]: 10 to 62 nM
binds	–	–	–	CD33-TriNKET-A49 (ADI-27749 and a CD33 binding domain) (bispecific antibody, V domains shown) VH 1: EVQLVESGGGLVKPGGSLRLSCAASGFTFSSYSMNWVRQAPGKGLEWVSSISSSSSYIYYADSVKGRFTISRDNAKNSLYLQMNSLRAEDTAVYYCARGAPMGAAAGWFDPWGQGTLVTVSS VL 1: DIQMTQSPSSVSASVGDRVTITCRASQGISSWLAWYQQKPGKAPKLLIYAASSLQSGVPSRFSGSGSGTDFTLTISSLQPEDFATYYCQQGVSFPRTFGGGTKVEIK VH 2: QVQLVQSGAEVKKPGASVKVSCKASGYTFTDYVVHWVRQAPGQGLEWMGYINPYNDGTKYNEKFKGRVTMTRDTSISTAYMELSRLRSDDTAVYYCARDYRYEVYGMDYWGQGTLVTVSS VL 2: DIVLTQSPASLAVSPGQRATITCTASSSVNYIHWYQQKPGQPPKLLIYDTSKVASGVPARFSGSGSGTDFTLTINPVEANDTANYYCQQWRSYPLTFGQGTKLEIK	binding result [2]: binds
binds	–	–	–	CD33-TriNKET-F63 (ADI-29463 and a CD33 binding domain) (bispecific antibody, V domains shown) VH 1: not shown VL 1: EIVLTQSPGTLSLSPGERATLSCRASQSVSSNLAWYQQKPGQAPRLLIYGASTRATGIPARFSGSGSGTEFTLTISSLQSEDFAVYYCQQDDYWPPTFGGGTKVEIK VH 2: QVQLVQSGAEVKKPGASVKVSCKASGYTFTDYVVHWVRQAPGQGLEWMGYINPYNDGTKYNEKFKGRVTMTRDTSISTAYMELSRLRSDDTAVYYCARDYRYEVYGMDYWGQGTLVTVSS VL 2: DIVLTQSPASLAVSPGQRATITCTASSSVNYIHWYQQKPGQPPKLLIYDTSKVASGVPARFSGSGSGTDFTLTINPVEANDTANYYCQQWRSYPLTFGQGTKLEIK	–
–	0.00489	395000	12.4	NKG2D monoclonal antibody comprising ADI-27749 (antibody, V domains shown, also called A49) VH: EVQLVESGGGLVKPGGSLRLSCAASGFTFSSYSMNWVRQAPGKGLEWVSSISSSSSYIYYADSVKGRFTISRDNAKNSLYLQMNSLRAEDTAVYYCARGAPMGAAAGWFDPWGQGTLVTVSS VL: DIQMTQSPSSVSASVGDRVTITCRASQGISSWLAWYQQKPGKAPKLLIYAASSLQSGVPSRFSGSGSGTDFTLTISSLQPEDFATYYCQQGVSFPRTFGGGTKVEIK	–
–	–	–	–	NKG2D monoclonal antibody comprising F47 (antibody, V domains shown, Monoclonal antibody) VH: QVQLQQWGAGLLKPSETLSLTCAVYGGSFSGYYWSWIRQPPGKGLEWIGEIDHSGSTNYNPSLKSRVTISVDTSKNQFSLKLSSVTAADTAVYYCARARGPWSFDPWGQGTLVTVSS VL: DIQMTQSPSTLSASVGDRVTITCRASQSISSWLAWYQQKPGKAPKLLIYKASSLESGVPSRFSGSGSGTEFTLTISSLQPDDFATYYCQQYDTFITFGGGTKVEIK	binding result [7]: binds
–	0.0225	443000	50.7	Human monoclonal antibody containing NKG2D-binding domain ADI-29379 (antibody, V domains shown, Tested as a human monoclonal antibody; also called E79; ADI-29379 (E79)) VH: QVQLVQSGAEVKKPGASVKVSCKASGYTFTSYYMHWVRQAPGQGLEWMGIINPSGGSTSYAQKFQGRVTMTRDTSTSTVYMELSSLRSEDTAVYYCARGAPNYGDTTHDYYYMDVWGKGTTVTVSS VL: EIVMTQSPATLSVSPGERATLSCRASQSVSSNLAWYQQKPGQAPRLLIYGASTRATGIPARFSGSGSGTEFTLTISSLQSEDFAVYYCQQYDDWPFTFGGGTKVEIK	–
–	0.0487	832000	58.5	Human monoclonal antibody containing NKG2D-binding domain ADI-29378 (antibody, V domains shown, Tested as a human monoclonal antibody; also called E78; ADI-29378 (E78)) VH: QVQLVQSGAEVKKPGASVKVSCKASGYTFTSYYMHWVRQAPGQGLEWMGIINPSGGSTSYAQKFQGRVTMTRDTSTSTVYMELSSLRSEDTAVYYCAREGAGFAYGMDYYYMDVWGKGTTVTVSS VL: EIVLTQSPATLSLSPGERATLSCRASQSVSSYLAWYQQKPGQAPRLLIYDASNRATGIPARFSGSGSGTDFTLTISSLEPEDFAVYYCQQSDNWPFTFGGGTKVEIK	–

— US20240076384A1 (DRAGONFLY THERAPEUTICS, published 2024)
